Key:
[1] = target: GdmCl-denatured firefly luciferase (Photinus pyralis, UniProt P08659); test: Luciferase refolding assay; format: biochemical; conditions: denatured luciferase preincubated 1:1 for 15 min at room temperature before adding Hsp70/Hsp40
PolyQ35::YFP = PolyQ35::YFP aggregation in C. elegans overexpressing NAC (fluorescence microscopy, SDD-AGE); format: in vivo; conditions: day 3 of adulthood
Source text: NAC is a major ribosome-binding factor interacting broadly with nascent chains (del Alamo et al., 2011). However, its assumed chaperone function is poorly investigated. […] Although loss of NAC causes pleiotropic defects in C. elegans (Gamerdinger et al., 2015), this finding raises the possibility that NAC directly exerts a chaperone function on aggregation-prone proteins. In this case, overexpression of NAC should prevent aggregation of PolyQ proteins in vivo. Therefore, we used a C. elegans strain expressing 35 consecutive glutamine residues fused to YFP (PolyQ35::YFP) in body wall muscle cells. This PolyQ length is close to the aggregation threshold in C. elegans muscle cells, leading to progressive, age-dependent aggregation starting at day 2 of adulthood (Morley et al., 2002). We generated transgenic animals that overexpress FLAG-tagged α- and βNAC under the control of the muscle-specific myo-3 promoter. PolyQ aggregation was assessed at day 3 of adulthood by fluorescence microscopy as well as semi-denaturing detergent agarose gel electrophoresis (SDD-AGE), which detects high molecular weight oligomeric PolyQ species (Halfmann and Lindquist, 2008). […] This is evident by magnification of the head regions showing diffuse PolyQ35::YFP and less punctate PolyQ35::YFP structures when NAC was overexpressed (FIG. 1A, head region images). […] To directly test the potential chaperone function of NAC, we employed a peptide composed of 51 consecutive glutamines (PolyQ51) as a model substrate in a well-established in vitro aggregation assay. We initiated aggregation of PolyQ51 by cleaving a solubilizing GST tag with TEV protease and detected aggregates over time using a filter trap assay.
Worms were cultured according to standard techniques with E. coli OP50 as food source (Brenner, 1974). Transgenic strains were generated using standard microinjection protocols (Mello and Fire, 1995). […]

AtxQ78 = target: T1, AtxQ78 (Homo sapiens, UniProt P54252, INS305QQQQQQQQQQQQQQQQQQQQQQQQQQQQQQQQQQQQQQQQQQQQQQQQQQQQQQQQQQQQQQQQ); test: Chemical crosslinking (BS3) and mass spectrometry of NAC-AtxQ78 complexes; format: binding; conditions: NAC and AtxQ78 1:1, BS3 crosslinker, LC-MS
T1 construct: full-length Ataxin-3 harboring a stretch of 78 glutamines (AtxQ78); made in house
Protocol: For crosslinking AtxQ78 was buffer exchanged into 10 mM sodium phosphate (pH 7.2) and added to NAC at a 1:1 ratio (20 μM NAC+20 μM AtxQ78). A 1:1 mixture of BS^3-d^0 and BS^3-d^4 was added to the proteins at 20× and 50× molar excess and the reaction allowed to proceed at room temperature for 1 hour before quenching with the addition of 50 mM Tris-Cl (pH 7.5). Samples were diluted with 2× loading buffer and separated on Tris-tricine gels followed by staining with InstantBlue (Expedeon).
Gel pieces containing the crosslinked complexes were washed with 25 mM ammonium bicarbonate (pH 7.8) for 1 h with shaking. The solution was removed and the pieces destained three times with 25 mM ammonium bicarbonate in 60% acetonitrile. Gel pieces were dehydrated with 100% acetonitrile for 10 min and left to air-dry in a laminar flowhood for 1 h. Rehydration of the gel pieces was achieved by adding 0.1 mg/ml trypsin solution and incubating the samples on ice for 30 min. Excess trypsin was removed and the samples were incubated at 37° C. and 1000 rpm overnight. Peptides were extracted from the gel using 3 washes with 60% acetonitrile/5% formic acid. The extracts were pooled and concentrated using a SpeedVac before being analyzed using a nanoACQUITY LC-system coupled to a Synapt HDMS G2Si mass spectrometer. […]

T1 sequence (P54252 with tags, fused parts or gaps with the stated changes): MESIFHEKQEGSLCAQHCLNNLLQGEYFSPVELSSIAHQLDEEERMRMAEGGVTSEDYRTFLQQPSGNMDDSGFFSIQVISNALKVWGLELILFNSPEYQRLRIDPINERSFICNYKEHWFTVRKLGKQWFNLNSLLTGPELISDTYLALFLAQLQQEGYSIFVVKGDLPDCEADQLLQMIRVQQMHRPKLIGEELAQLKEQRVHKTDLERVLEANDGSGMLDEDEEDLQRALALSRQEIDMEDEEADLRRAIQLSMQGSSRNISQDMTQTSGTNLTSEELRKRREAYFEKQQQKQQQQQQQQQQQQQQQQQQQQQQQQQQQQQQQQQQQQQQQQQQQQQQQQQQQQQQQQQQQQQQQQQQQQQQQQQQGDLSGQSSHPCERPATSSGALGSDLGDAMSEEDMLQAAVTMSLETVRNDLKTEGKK
Sequence of GdmCl-denatured firefly luciferase (P08659 whole entry): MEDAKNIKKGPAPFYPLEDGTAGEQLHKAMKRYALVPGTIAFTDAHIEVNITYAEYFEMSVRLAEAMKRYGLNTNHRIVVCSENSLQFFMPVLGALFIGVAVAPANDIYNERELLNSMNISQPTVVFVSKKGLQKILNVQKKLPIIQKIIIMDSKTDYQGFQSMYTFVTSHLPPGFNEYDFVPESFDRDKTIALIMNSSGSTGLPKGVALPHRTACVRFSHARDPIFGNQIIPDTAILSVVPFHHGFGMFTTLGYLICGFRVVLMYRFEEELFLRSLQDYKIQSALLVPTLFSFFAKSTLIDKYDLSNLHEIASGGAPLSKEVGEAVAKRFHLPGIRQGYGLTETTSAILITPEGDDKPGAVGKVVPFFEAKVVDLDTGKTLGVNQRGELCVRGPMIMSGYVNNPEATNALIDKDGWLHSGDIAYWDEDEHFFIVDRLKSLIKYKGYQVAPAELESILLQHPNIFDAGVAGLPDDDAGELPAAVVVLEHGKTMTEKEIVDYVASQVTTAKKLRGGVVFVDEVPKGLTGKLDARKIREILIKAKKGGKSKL

B1: NAC: nascent polypeptide-associated complex, heterodimer of αNAC and βNAC; species not given at the place (C. elegans icd-1/icd-2 when overexpressed in worms) (protein)
chain 1: MTGSTETRQKEVKEPQVDVSDDSDNEAVEQELTEEQRRVAEAAGLGDHIDKQAKQSRSEKKARKLFSKLGLKQVTGVSRVCIRKSKNILFVINKPDVFKSPGSDTYIIFGEAKIEDLTQHAQMSAIENLKPTREAPQLKTVEEDENEDVEEDSTGIEEKDIELVISQANTTRNKAIRALKEADNDIVNAIMSLTM
chain 2: MMDSKAIAERIKKLQAQQEHVRIGGKGTPRRKKKVIHKTAAADDKKLQSNLKKLSVTNIPGIEEVNMIKDDGTVIHFNNPKVQTSVPANTFSVTGSADNKQITEMLPGILNQLGPESLTHLKKLANNVTKLGPDGKGEDEDVPELVGDFDAASKNETKADEQ
[1]
  luciferase refolding by the Hsp70/Hsp40 system: strongly enhanced over levels of just Hsp70/Hsp40 refolding
PolyQ35::YFP; NAC overexpressing worms
  insoluble high molecular weight PolyQ35::YFP aggregate species: less insoluble high molecular weight aggregate species
PolyQ35::YFP; overexpressed in body wall muscle cells (myo-3 promoter), fluorescence microscopy
  PolyQ35::YFP aggregation: effectively suppressed PolyQ35::YFP aggregation
AtxQ78
  NAC regions crosslinked to AtxQ78: predominantly crosslinked to AtxQ78 via the N-terminal regions of αNAC and βNAC

Reference: patent US12338268B2, “Compositions and methods for treating protein aggregation-associated diseases” (The Board of Trustees of the Leland Stanford Junior …, priority 2019, dated 2025)
